The assay has as its target T1, ICS (pro-IL-1beta-derived epitope).
T1 construct: also called ICS peptide; 14-mer called ICS
T1 peptide: NEAYVHDGPVRSLN
Briefly: method not stated; measured in a different context from the cleavage assay, with LEPB lacking a free N-terminus.

B1: LEPB (peptide)
peptide: KARKEAELAAATAEQ
notes: In the ICE cleavage experiment it was a synthetic peptide with a free N-terminus; also called synthetic LEPB; 15mer (LEPB)
The molecule B1 gave a Kd of 2 µM.

The record behind these values is patent US20060275823A1 (published 2006).
